Key:
Human CD137 (TNR9_Human) = Human CD137 (TNR9_Human) (human, UniProt Q07011 24-255); assay: cell-based or functional assay
Human CD40 = Human CD40 (human, UniProt P25942 21-277); assay: cell-based or functional assay
Human CD40, sequence (P25942 21-277): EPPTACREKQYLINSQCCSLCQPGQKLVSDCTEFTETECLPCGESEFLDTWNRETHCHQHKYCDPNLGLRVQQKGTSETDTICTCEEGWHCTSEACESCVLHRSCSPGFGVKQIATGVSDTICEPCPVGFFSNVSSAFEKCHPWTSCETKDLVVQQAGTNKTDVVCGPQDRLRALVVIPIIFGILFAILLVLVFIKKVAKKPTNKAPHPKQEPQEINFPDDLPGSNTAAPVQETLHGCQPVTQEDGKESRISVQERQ

Human CD137 (TNR9_Human), sequence (Q07011 24-255): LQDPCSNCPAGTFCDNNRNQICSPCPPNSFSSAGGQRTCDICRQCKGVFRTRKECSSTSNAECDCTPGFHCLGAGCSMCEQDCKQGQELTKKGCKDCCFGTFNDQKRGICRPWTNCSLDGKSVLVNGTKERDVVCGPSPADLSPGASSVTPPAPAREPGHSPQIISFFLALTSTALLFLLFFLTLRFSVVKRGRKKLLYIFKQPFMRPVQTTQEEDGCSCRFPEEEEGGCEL

| Binder | luciferase activity (RLU) of NF-KB/293/GFP-Luc cells transduced with CD137, incubated with K562_CD40 (Human CD137 (TNR9_Human)) | luciferase activity (RLU) of NF-KB/293/GFP-Luc cells transduced with CD40, incubated with K562_CD137 (Human CD40) |
| --- | --- | --- |
| CD40-001-FEALxCD137-011-FEAR (bispecific antibody, human IgG1, kappa) heavy 1: EVQLQQSGPDLVKPGASVKISCKTSGYTFTEYIMHWVKQSHGKSLEWIGGIIPNNGGTSYNQKFKDKATMTVDKSSSTGYMELRSLTSEDSAVYYCTRREVYGRNYYALDYWGQGTLVTVSSASTKGPSVFPLAPSSKSTSGGTAALGCLVKDYFPEPVTVSWNSGALTSGVHTFPAVLQSSGLYSLSSVVTVPSSSLGTQTYICNVNHKPSNTKVDKRVEPKSCDKTHTCPPCPAPEFEGGPSVFLFPPKPKDTLMISRTPEVTCVVVAVSHEDPEVKFNWYVDGVEVHNAKTKPREEQYNSTYRVVSVLTVLHQDWLNGKEYKCKVSNKALPAPIEKTISKAKGQPREPQVYTLPPSREEMTKNQVSLTCLVKGFYPSDIAVEWESNGQPENNYKTTPPVLDSDGSFLLYSKLTVDKSRWQQGNVFSCSVMHEALHNHYTQKSLSLSPGK light 1: DIQMTQTTSSLSASLGDRVTITCSASQGINNYLNWYQQKPDGTVKLLIYYTSSLHSGVPSRFSGSGSGTDYSLTISNLEPEDIATYYCQQYSNLPYTFGGGTKLEIKRTVAAPSVFIFPPSDEQLKSGTASVVCLLNNFYPREAKVQWKVDNALQSGNSQESVTEQDSKDSTYSLSSTLTLSKADYEKHKVYACEVTHQGLSSPVTKSFNRGEC heavy 2: QSLEESGGRLVTPGTPLTLTCTVSGIDLSSYHMCWVRQAPGKGLEYIGYIAYGGNTYYANWAKGRFTISKTSTTVDLRITSPTTEDTATYFCARGYSEDSYWGLWGPGTLVTVSSASTKGPSVFPLAPSSKSTSGGTAALGCLVKDYFPEPVTVSWNSGALTSGVHTFPAVLQSSGLYSLSSVVTVPSSSLGTQTYICNVNHKPSNTKVDKRVEPKSCDKTHTCPPCPAPEFEGGPSVFLFPPKPKDTLMISRTPEVTCVVVAVSHEDPEVKFNWYVDGVEVHNAKTKPREEQYNSTYRVVSVLTVLHQDWLNGKEYKCKVSNKALPAPIEKTISKAKGQPREPQVYTLPPSREEMTKNQVSLTCLVKGFYPSDIAVEWESNGQPENNYKTTPPVLDSDGSFFLYSRLTVDKSRWQQGNVFSCSVMHEALHNHYTQKSLSLSPGK light 2: AYDMTQTPASVEAAVGGTVTIKCQASQNIENYLAWYQQKPGQPPKLLIYDTSKLTSGVPSRFSGSGSGTDFTLTISGVQSDDAATYYCQQDYGIIFVDNIFGGGTEVVVKRTVAAPSVFIFPPSDEQLKSGTASVVCLLNNFYPREAKVQWKVDNALQSGNSQESVTEQDSKDSTYSLSSTLTLSKADYEKHKVYACEVTHQGLSSPVTKSFNRGEC | ~100 ng/mL | ~100 ng/mL |
| CD40-001-FEALxCD137-002-FEAR (bispecific antibody, human IgG1, kappa) heavy 1: EVQLQQSGPDLVKPGASVKISCKTSGYTFTEYIMHWVKQSHGKSLEWIGGIIPNNGGTSYNQKFKDKATMTVDKSSSTGYMELRSLTSEDSAVYYCTRREVYGRNYYALDYWGQGTLVTVSSASTKGPSVFPLAPSSKSTSGGTAALGCLVKDYFPEPVTVSWNSGALTSGVHTFPAVLQSSGLYSLSSVVTVPSSSLGTQTYICNVNHKPSNTKVDKRVEPKSCDKTHTCPPCPAPEFEGGPSVFLFPPKPKDTLMISRTPEVTCVVVAVSHEDPEVKFNWYVDGVEVHNAKTKPREEQYNSTYRVVSVLTVLHQDWLNGKEYKCKVSNKALPAPIEKTISKAKGQPREPQVYTLPPSREEMTKNQVSLTCLVKGFYPSDIAVEWESNGQPENNYKTTPPVLDSDGSFLLYSKLTVDKSRWQQGNVFSCSVMHEALHNHYTQKSLSLSPGK light 1: DIQMTQTTSSLSASLGDRVTITCSASQGINNYLNWYQQKPDGTVKLLIYYTSSLHSGVPSRFSGSGSGTDYSLTISNLEPEDIATYYCQQYSNLPYTFGGGTKLEIKRTVAAPSVFIFPPSDEQLKSGTASVVCLLNNFYPREAKVQWKVDNALQSGNSQESVTEQDSKDSTYSLSSTLTLSKADYEKHKVYACEVTHQGLSSPVTKSFNRGEC heavy 2: QSVEESGGRLVTPGTPLTLTCTVSGFSLTYYAVTWVRQPPGKGLEWIGVIYDNGATAFATWAKGRFTMSKNSTTVALKVTSPTTEDTATYFCARSANNAWSTYSNLWGQGTLVTVSSASTKGPSVFPLAPSSKSTSGGTAALGCLVKDYFPEPVTVSWNSGALTSGVHTFPAVLQSSGLYSLSSVVTVPSSSLGTQTYICNVNHKPSNTKVDKRVEPKSCDKTHTCPPCPAPEFEGGPSVFLFPPKPKDTLMISRTPEVTCVVVAVSHEDPEVKFNWYVDGVEVHNAKTKPREEQYNSTYRVVSVLTVLHQDWLNGKEYKCKVSNKALPAPIEKTISKAKGQPREPQVYTLPPSREEMTKNQVSLTCLVKGFYPSDIAVEWESNGQPENNYKTTPPVLDSDGSFFLYSRLTVDKSRWQQGNVFSCSVMHEALHNHYTQKSLSLSPGK light 2: DIVMTQTPSSVSAAVGGTVTINCQASEDISSYLSWYQQKLGQPPKLLIYKASTLESGVPSRFKGSGSGTEYTLTISDLESDDAATYYCQSYYSGSISGYGFVFGGGTGVVVKRTVAAPSVFIFPPSDEQLKSGTASVVCLLNNFYPREAKVQWKVDNALQSGNSQESVTEQDSKDSTYSLSSTLTLSKADYEKHKVYACEVTHQGLSSPVTKSFNRGEC | ~100 ng/mL | ~100 ng/mL |
| CD40-001-FEALxCD137-003-FEAR (bispecific antibody, human IgG1, kappa) heavy 1: EVQLQQSGPDLVKPGASVKISCKTSGYTFTEYIMHWVKQSHGKSLEWIGGIIPNNGGTSYNQKFKDKATMTVDKSSSTGYMELRSLTSEDSAVYYCTRREVYGRNYYALDYWGQGTLVTVSSASTKGPSVFPLAPSSKSTSGGTAALGCLVKDYFPEPVTVSWNSGALTSGVHTFPAVLQSSGLYSLSSVVTVPSSSLGTQTYICNVNHKPSNTKVDKRVEPKSCDKTHTCPPCPAPEFEGGPSVFLFPPKPKDTLMISRTPEVTCVVVAVSHEDPEVKFNWYVDGVEVHNAKTKPREEQYNSTYRVVSVLTVLHQDWLNGKEYKCKVSNKALPAPIEKTISKAKGQPREPQVYTLPPSREEMTKNQVSLTCLVKGFYPSDIAVEWESNGQPENNYKTTPPVLDSDGSFLLYSKLTVDKSRWQQGNVFSCSVMHEALHNHYTQKSLSLSPGK light 1: DIQMTQTTSSLSASLGDRVTITCSASQGINNYLNWYQQKPDGTVKLLIYYTSSLHSGVPSRFSGSGSGTDYSLTISNLEPEDIATYYCQQYSNLPYTFGGGTKLEIKRTVAAPSVFIFPPSDEQLKSGTASVVCLLNNFYPREAKVQWKVDNALQSGNSQESVTEQDSKDSTYSLSSTLTLSKADYEKHKVYACEVTHQGLSSPVTKSFNRGEC heavy 2: QSVEESGGRLVTPGTPLTLTCTASGFTISSYHMIWVRQAPGEGLEWIGDIYGGTATTDYASWAKGRFTISKTSTTVDLKMTSLTTEDTATYFCARARYSGGSYANYVFNLWGQGTLVTVSSASTKGPSVFPLAPSSKSTSGGTAALGCLVKDYFPEPVTVSWNSGALTSGVHTFPAVLQSSGLYSLSSVVTVPSSSLGTQTYICNVNHKPSNTKVDKRVEPKSCDKTHTCPPCPAPEFEGGPSVFLFPPKPKDTLMISRTPEVTCVVVAVSHEDPEVKFNWYVDGVEVHNAKTKPREEQYNSTYRVVSVLTVLHQDWLNGKEYKCKVSNKALPAPIEKTISKAKGQPREPQVYTLPPSREEMTKNQVSLTCLVKGFYPSDIAVEWESNGQPENNYKTTPPVLDSDGSFFLYSRLTVDKSRWQQGNVFSCSVMHEALHNHYTQKSLSLSPGK light 2: DIVMTQTPASVEAAVGGTVTIKCQASQSISSYLAWYQQKPGQPPKLLIYRTSTLESGVPSRFKGSGSGTEFTLTISDLESADAATYYCQGYDWSSSNRYDNTFGGGTEVVVKRTVAAPSVFIFPPSDEQLKSGTASVVCLLNNFYPREAKVQWKVDNALQSGNSQESVTEQDSKDSTYSLSSTLTLSKADYEKHKVYACEVTHQGLSSPVTKSFNRGEC | ~100 ng/mL | ~100 ng/mL |
| CD40-001-FEALxCD137-012-FEAR (bispecific antibody, human IgG1, kappa) heavy 1: EVQLQQSGPDLVKPGASVKISCKTSGYTFTEYIMHWVKQSHGKSLEWIGGIIPNNGGTSYNQKFKDKATMTVDKSSSTGYMELRSLTSEDSAVYYCTRREVYGRNYYALDYWGQGTLVTVSSASTKGPSVFPLAPSSKSTSGGTAALGCLVKDYFPEPVTVSWNSGALTSGVHTFPAVLQSSGLYSLSSVVTVPSSSLGTQTYICNVNHKPSNTKVDKRVEPKSCDKTHTCPPCPAPEFEGGPSVFLFPPKPKDTLMISRTPEVTCVVVAVSHEDPEVKFNWYVDGVEVHNAKTKPREEQYNSTYRVVSVLTVLHQDWLNGKEYKCKVSNKALPAPIEKTISKAKGQPREPQVYTLPPSREEMTKNQVSLTCLVKGFYPSDIAVEWESNGQPENNYKTTPPVLDSDGSFLLYSKLTVDKSRWQQGNVFSCSVMHEALHNHYTQKSLSLSPGK light 1: DIQMTQTTSSLSASLGDRVTITCSASQGINNYLNWYQQKPDGTVKLLIYYTSSLHSGVPSRFSGSGSGTDYSLTISNLEPEDIATYYCQQYSNLPYTFGGGTKLEIKRTVAAPSVFIFPPSDEQLKSGTASVVCLLNNFYPREAKVQWKVDNALQSGNSQESVTEQDSKDSTYSLSSTLTLSKADYEKHKVYACEVTHQGLSSPVTKSFNRGEC heavy 2: QSVEESGGRLVTPGTPLTLTCTVSGFSLSDYYMTWVRQAPGKGLEYIGIMSGSGSTYYASWAKGRFTISKTSSTTLELKITSPTTEDTAIYFCARDGDYAGWGYATGAFDPWGPGTLVTVSSASTKGPSVFPLAPSSKSTSGGTAALGCLVKDYFPEPVTVSWNSGALTSGVHTFPAVLQSSGLYSLSSVVTVPSSSLGTQTYICNVNHKPSNTKVDKRVEPKSCDKTHTCPPCPAPEFEGGPSVFLFPPKPKDTLMISRTPEVTCVVVAVSHEDPEVKFNWYVDGVEVHNAKTKPREEQYNSTYRVVSVLTVLHQDWLNGKEYKCKVSNKALPAPIEKTISKAKGQPREPQVYTLPPSREEMTKNQVSLTCLVKGFYPSDIAVEWESNGQPENNYKTTPPVLDSDGSFFLYSRLTVDKSRWQQGNVFSCSVMHEALHNHYTQKSLSLSPGK light 2: AAVLTQTPSPVSAAVGGTVTISCQASQSVVGNSLLSWFQKKPGQPPKLLIYSASSLASGVPSRFKGSGSGTQFTLTISDLESDDAATYYCTGRYNSDTDTFVFGGGTEVVVKRTVAAPSVFIFPPSDEQLKSGTASVVCLLNNFYPREAKVQWKVDNALQSGNSQESVTEQDSKDSTYSLSSTLTLSKADYEKHKVYACEVTHQGLSSPVTKSFNRGEC | ~100 ng/mL | ~100 ng/mL |
